For the data set, the target named is T1, Spo0J R82A (Bacillus subtilis, UniProt P26497 1-282, R82A).
T1 sequence: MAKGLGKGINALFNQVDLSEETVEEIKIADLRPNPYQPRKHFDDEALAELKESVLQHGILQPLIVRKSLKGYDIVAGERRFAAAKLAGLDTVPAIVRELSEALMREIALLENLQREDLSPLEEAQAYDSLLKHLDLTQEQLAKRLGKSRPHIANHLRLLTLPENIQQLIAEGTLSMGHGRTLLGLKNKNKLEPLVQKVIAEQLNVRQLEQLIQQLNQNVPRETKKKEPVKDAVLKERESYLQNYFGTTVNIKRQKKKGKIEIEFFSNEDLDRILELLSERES
As to the kind of experiment: white light interferometry (BLItz), Hill fit (n=1.9±0.5); 150 mM NaCl, 0.02% Tween-20; apparent Kd; PIFE: 20 mM Tris pH 7.5, 100 ug/ml BSA, 100 mM NaCl (150 mM for Spo0J R82A Kd), flow 100 ul/min; BLItz: 20 mM Tris pH 7.5, 150 mM NaCl, 100 ug/ml BSA, 0.02% Twe.

B1: 39-bp scrambled parS duplex (oTG044F/oTG043R) (dsDNA)
DNA 1: CAGTTGAATCTGACAAATGACTAACAATGAGAGCAAAAA
DNA 2: TTTTTGCTCTCATTGTTAGTCATTTGTCAGATTCAACTG
In the case of B1, the Kd worked out at 131 ± 24.3 nM.

The record behind these values is publication PMC4786781.
